Assay results as given in the domain aggregation screens of Martell et al. (2025).

Test: soluble fraction after stress (log2 fold change); higher = more stays soluble; pooled small domains, quantitative proteomics
Conditions: stress: 75 degC
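Further: 20 min heating vs room temperature control held 20 min.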

| Sequence | soluble fraction (log2) |
| --- | --- |
| HMSVNAPMPGKIVNVLVSEGQKVNSGDVLLILEAMKMQNEIAATQAGTVKAINVAAGQSVKVGDALVN | -0.0534 |
| HMSVPQENKDLLGRSIEIFYAGKTVEAKVTDTGALAPLGRALDLSPATWRAFGASSISDWGVRGVFYRFVA | 0.212 |
| HMSVSTGTITGSVVNLREEPNTSSKVLDKLPKDTVVYVLSASGEWYNVSYGDKTGWVYGEYLA | -0.737 |
| HMSVTSEIGAKIKYFRKSKHFSLQEMADLLYKSKSTLSKYENGQISIDIETLYAIAKVLGVHVEQLLYSEP | -5.12 |
| HMSVTSIEGRVVYDENANKIGIAKQVGIDSTQSMVLVLTKNDGTEGSISWNNIKKIGEIILLGN | -0.908 |
| HMSWAGRRSLAALEARYRDETGISNLKIKHNGVLGYHIEVPSKSADKLMAPDSGFTHRQTLAGAVR | 0.228 |
| HMSYDAINGYEPSDLRGSLTLEQTASMLNLPLTDVYARLGLPANYPSGATLKDGAADMGMGLSDFKHQLF | -0.121 |
| HMSYLDTLPGRRVAAQGAITGDAGTLAVDGDTWSARVEPGAPDVAPGDEVTVLRIDGATLVVRPLP | 0.0276 |
| HMSYPFSEDALKEKIREYLKHNRSINRKVLEAEFHIRKQTALNWLKKLEKSGFLIKEGSRNAPVYFLAE | -1.83 |
| HMSYQADEIKEKLIDILQNQKTGLSGLEISERIGINRITMTKYLQVFAAEGFIKQKNIGNVIIWFIEDGTE | -1.05 |
| HMSYTYPVARLNHIKGKWYVLVSVPAHLRHLFPNQRDLRRSTGTDDESLAKRKQHALAQEIYDLFD | -0.653 |
| HMTAFEPYLVKVMASVLNIRKGPGTSYAITGQIKDKGTYTIVAESGSWGKLKSGAGWISLSYTSKAGKA | -1.82 |
| HMTAFSEQLIKLRKQKGLSQEQLGAAVGVTRQTVSKWELGDTTPELGKLVQLSDYFQLSIDELVGH | -0.703 |
| HMTAGTTALNKLQQGMSTQQVQAALGTPSDRTVKESGVELWKYYYPYENMLLYLKFRDGHLVSFGTN | -0.594 |
| HMTAKQDLDSIYRHLVATRKSIAENPKMVSSIDDPQALIKMLDYAIQYFYTDKRDEALAVLEKNEEQLNFR | -0.347 |
| HMTALTTEDLERRFYAKTYEGESAQKRLARLEISVFGELRQGRPESDRLHDLNNAVLEKERAALNAGAVG | 0.063 |
| HMTAMQYVTIKDIADALGISKSSVSRALAGDVHNVSAQTIERVRAKALEMGYLRNNAAVNLR | -0.413 |
| HMTANDKRNALYRKIEVGRRQLPAMDEVAFRQLLAAEFGVESRKDMSVGQLSRLVNILAEKGAVF | -0.741 |
| HMTANTLDLTYSQFLENVKNGSVNDVTIRGNNVSGNFSDGRKFKTYAVNDPTLVEKLTKMGVNISAAPL | 0.405 |

| Sequence | soluble fraction (log2) |
| --- | --- |
| HMTAPELSVGDYLEYRGKEYKVESLDMDGFITLTDTALEDAPRLISRVTFLTDEFIRSGEYMVIT | -0.811 |
| HMTAQGDSSDAVQRAITEILRHEDPSHPFSDQQLVIKLRTMDISVSRRTVTKYRKLLHIPSSTHRK | -3.12 |
| HMTARYQQVEDYIVRRIQDGSWPPGHRLPSEHELVQQFGMSRMTVNRALRDLMQKGRIVRVAGVGSFVAQD | -1.98 |
| HMTATSKKAAWDEVNKIFPTDYERSAAESERAGYAIFRSTAEGVNAWISDLGDRLEINLPDGKTVNIWIEE | -0.0996 |
| HMTATVPDSEAGIRLDVYAAALLGVSRAGAQKYIESGAVRVNGLPAPKNRRLESGDVIEAVLPDPE | 0.194 |
| HMTAVAAEQQAQDAYRQTAANNLNEIQAKYKLPDSESDDFFTFAYERGFTQEDFIDIGLVDKIMGDYV | 0.19 |
| HMTAVNEHELMNQFKLSLGYANGDDPQTKLSTDEKNDFMRFKEWATAMTKDSKMGKDPDYLKKLAVQWTLK | 0.278 |
| HMTAYEGLPVTLIIDGRVFQQNLQKMNLSVEWLRLELKKFGVTNLKEVLFASLDTEGKLFYQLKT | -0.792 |
| HMTDEYYSYIGKTGTTITVLRPAGIAEVEGERLNVVSEGEFIRKGAAILVKEVEGARILVEEVN | -0.58 |
| HMTDFESYTVRVTATNLNIRKGAGTNFHSAGYIKPGVYTIVEEADGKGATRWGKLKSGMGWISLDYAKK | -1.04 |
| HMTDGYAMRLERLNSLEEYVLNKGTVSLEDLAERFGVSINTIRRDLNELISRGQIKKVYGGVSSLHD | -0.252 |
| HMTDIDATSIERAVAKRRHFFLSNIQDLTMKMARRLIEKDLGLAPKHLDAAPFKTRITELVDAVIALGD | -0.393 |
| HMTDIKYLIADGNDIKHWDTASSSYVKVSELPLTSDKFKIYGDDIYHKERTGIIAASPILKIWSPSAE | 0.384 |
| HMTDKLIAYSVDGILNVITSEAQSVKVYAIDGRLVRILQLGEGRNEVSGLAKGIYIVDNRKVAV | -2.71 |
| HMTDLNQIGERIKGLRDALGYSPEKMASILEQKVDDYLAYEEGTKDISLSVLQRIEKEFDIDLSTLLFGT | -0.333 |
| HMTDRKRDAIVQAAIGEFREHGFNGTSMDRVAAAADVSKRTVYNHFPSKEELFEAILLLMWE | -1.93 |
| HMTDSISLTLNGDPRPFRAGATVADLVRDIGLDPAKVAVERNLEIVPRSTLENVHLADGDVLEIVHFV | 0.0689 |
| HMTDTIALRSVIAESGLKYKALAEIMGLSPYTLQMKIDNESEFKASEIDALANALGMDMQQRDSIFF | -0.536 |
| HMTDVIADMLTRIRNAASSKHQTVDIPSSNLKKEIAKILLEEGYIRDFIEIDDKKQGIIRITL | -0.692 |
